Columns and labels:
SGK(h) = target: T1, SGK(h) (Homo sapiens, UniProt O00141); assay: Kinase Profiling Assay; format: biochemical
T1 sequence (O00141 1-431): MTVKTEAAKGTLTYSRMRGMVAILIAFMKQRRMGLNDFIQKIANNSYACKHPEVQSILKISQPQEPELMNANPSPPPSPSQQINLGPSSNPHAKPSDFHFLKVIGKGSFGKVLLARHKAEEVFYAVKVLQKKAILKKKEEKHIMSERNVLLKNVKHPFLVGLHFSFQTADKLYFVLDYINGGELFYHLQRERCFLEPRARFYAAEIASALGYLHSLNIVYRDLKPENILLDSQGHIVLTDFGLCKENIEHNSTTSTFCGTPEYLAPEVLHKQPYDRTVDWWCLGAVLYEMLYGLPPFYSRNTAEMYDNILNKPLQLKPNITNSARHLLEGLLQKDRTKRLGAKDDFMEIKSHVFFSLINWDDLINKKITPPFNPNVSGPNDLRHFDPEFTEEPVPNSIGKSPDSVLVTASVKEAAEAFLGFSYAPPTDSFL

DAPK1(h) = DAPK1(h) (Homo sapiens, UniProt P53355); assay: Kinase Profiling Assay; format: biochemical
Ret(V804M)(h) = Ret(V804M)(h) (Homo sapiens, UniProt P07949, V804M); assay: Kinase Profiling Assay; format: biochemical
[1] = Cytotoxicity assay (CytoTox-ONE); conditions: human, HCAVSMCs
Experimental: 200 μL of cell suspension (at 10,000 cells/well) were seeded onto 96-well plates to yield an approximate 70% confluence per well. Cells were allowed to adhere to the plate overnight. […] Treatments were subsequently removed and the cells were cultured in fresh complete growth medium for 24 hours. Cells were then washed 2× with PBS +/+ and cell viability was then determined by a CytoTox-ONE Homogenous Membrane Integrity assay (Promega) according to the manufacturer's protocol. Briefly, 100 μL of Ambion KDalert Lysis Buffer was added to each well, and then 100 μL of freshly prepared CytoTox-ONE reagent was added to each well. After 10 minutes of incubation, 50 μL of stop solution was added, and the fluorescence of each well (kλex=560 nm, λem, =590 nm) was determined with a TECAN Infinite M1000 Pro plate reader.

PRAK(h) = target: T2, PRAK(h) (Homo sapiens, UniProt Q8IW41); assay: Kinase Profiling Assay; format: biochemical
T2 sequence (Q8IW41 1-473): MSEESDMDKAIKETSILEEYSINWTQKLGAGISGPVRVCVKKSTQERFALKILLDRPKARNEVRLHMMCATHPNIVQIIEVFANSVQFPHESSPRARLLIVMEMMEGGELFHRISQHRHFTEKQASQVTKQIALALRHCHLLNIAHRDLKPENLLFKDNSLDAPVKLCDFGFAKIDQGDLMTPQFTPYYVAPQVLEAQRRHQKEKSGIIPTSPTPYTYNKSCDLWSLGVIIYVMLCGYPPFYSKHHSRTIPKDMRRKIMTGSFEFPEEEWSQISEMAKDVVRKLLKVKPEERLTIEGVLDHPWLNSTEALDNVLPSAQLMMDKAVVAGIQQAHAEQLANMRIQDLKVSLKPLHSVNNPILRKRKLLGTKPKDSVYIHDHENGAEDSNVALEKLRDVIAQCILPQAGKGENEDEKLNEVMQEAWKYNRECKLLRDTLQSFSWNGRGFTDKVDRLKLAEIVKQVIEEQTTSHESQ

FAK(h) = FAK(h) (Homo sapiens, UniProt Q05397); assay: Kinase Profiling Assay; format: biochemical; conditions: 100 μM
PKBβ(h) = PKBβ(h) (Homo sapiens, UniProt P31751); assay: Kinase Profiling Assay; format: biochemical; conditions: 100 μM
Tie2(R849W)(h) = Tie2(R849W)(h) (Homo sapiens, UniProt Q02763, R849W); assay: Kinase Profiling Assay; format: biochemical; conditions: 100 μM
CK1γ3(h) = CK1γ3(h) (Homo sapiens, UniProt Q9Y6M4); assay: Kinase Profiling Assay; format: biochemical; conditions: 100 μM
Ros(h) = Ros(h) (Homo sapiens, UniProt P08922); assay: Kinase Profiling Assay; format: biochemical; conditions: 100 μM
Arg(h) = Arg(h) (Homo sapiens, UniProt P42684); assay: Kinase Profiling Assay; format: biochemical; conditions: 100 μM
EphA2(h) = EphA2(h) (Homo sapiens, UniProt P29317); assay: Kinase Profiling Assay; format: biochemical; conditions: 100 μM
Hck(h) activated = Hck(h) activated (Homo sapiens, UniProt P08631); assay: Kinase Profiling Assay; format: biochemical; conditions: 100 μM
CDK5/p25(h) = CDK5/p25(h) (Homo sapiens, UniProt Q00535); assay: Kinase Profiling Assay; format: biochemical; conditions: 100 μM
PKCβI(h) = PKCβI(h) (Homo sapiens, UniProt P05771); assay: Kinase Profiling Assay; format: biochemical; conditions: 100 μM
Syk(h) = Syk(h) (Homo sapiens, UniProt P43405); assay: Kinase Profiling Assay; format: biochemical; conditions: 100 μM
EGFR(T790M,L858R)(h) = EGFR(T790M,L858R)(h) (Homo sapiens, UniProt P00533, L858R/T790M); assay: Kinase Profiling Assay; format: biochemical; conditions: 100 μM
Lyn(h) = Lyn(h) (Homo sapiens, UniProt P07948); assay: Kinase Profiling Assay; format: biochemical; conditions: 100 μM
Rsk3(h) = Rsk3(h) (Homo sapiens, UniProt Q15349); assay: Kinase Profiling Assay; format: biochemical; conditions: 100 μM
Aurora-A(h) = target: T3, Aurora-A(h) (Homo sapiens, UniProt O14965); assay: Kinase Profiling Assay; format: biochemical; conditions: 100 μM
T3 sequence (O14965 1-403): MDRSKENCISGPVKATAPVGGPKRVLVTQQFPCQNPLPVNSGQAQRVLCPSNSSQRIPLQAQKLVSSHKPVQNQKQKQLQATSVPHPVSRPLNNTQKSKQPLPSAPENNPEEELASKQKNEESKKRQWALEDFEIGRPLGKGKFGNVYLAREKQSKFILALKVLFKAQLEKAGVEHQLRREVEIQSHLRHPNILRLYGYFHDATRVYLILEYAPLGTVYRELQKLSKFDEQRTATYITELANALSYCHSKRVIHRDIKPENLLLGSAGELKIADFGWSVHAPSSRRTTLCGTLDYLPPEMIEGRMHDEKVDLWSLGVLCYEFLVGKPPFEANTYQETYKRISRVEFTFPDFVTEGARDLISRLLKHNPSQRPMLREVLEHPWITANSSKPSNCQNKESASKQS

Ab1(h) = Ab1(h) (Homo sapiens, UniProt P00519); assay: Kinase Profiling Assay; format: biochemical; conditions: 100 μM
SAPK2a(h) = SAPK2a(h) (Homo sapiens, UniProt Q16539); assay: Kinase Profiling Assay; format: biochemical; conditions: 100 μM
Lck(h) = Lck(h) (Homo sapiens, UniProt P06239); assay: Kinase Profiling Assay; format: biochemical; conditions: 100 μM
Ab1(Q252H)(h) = Ab1(Q252H)(h) (Homo sapiens, UniProt P00519, Q252H); assay: Kinase Profiling Assay; format: biochemical; conditions: 100 μM
LIMK1(h) = LIMK1(h) (Homo sapiens, UniProt P53667); assay: Kinase Profiling Assay; format: biochemical; conditions: 100 μM

Chain of Arg(h) (P42684 whole entry): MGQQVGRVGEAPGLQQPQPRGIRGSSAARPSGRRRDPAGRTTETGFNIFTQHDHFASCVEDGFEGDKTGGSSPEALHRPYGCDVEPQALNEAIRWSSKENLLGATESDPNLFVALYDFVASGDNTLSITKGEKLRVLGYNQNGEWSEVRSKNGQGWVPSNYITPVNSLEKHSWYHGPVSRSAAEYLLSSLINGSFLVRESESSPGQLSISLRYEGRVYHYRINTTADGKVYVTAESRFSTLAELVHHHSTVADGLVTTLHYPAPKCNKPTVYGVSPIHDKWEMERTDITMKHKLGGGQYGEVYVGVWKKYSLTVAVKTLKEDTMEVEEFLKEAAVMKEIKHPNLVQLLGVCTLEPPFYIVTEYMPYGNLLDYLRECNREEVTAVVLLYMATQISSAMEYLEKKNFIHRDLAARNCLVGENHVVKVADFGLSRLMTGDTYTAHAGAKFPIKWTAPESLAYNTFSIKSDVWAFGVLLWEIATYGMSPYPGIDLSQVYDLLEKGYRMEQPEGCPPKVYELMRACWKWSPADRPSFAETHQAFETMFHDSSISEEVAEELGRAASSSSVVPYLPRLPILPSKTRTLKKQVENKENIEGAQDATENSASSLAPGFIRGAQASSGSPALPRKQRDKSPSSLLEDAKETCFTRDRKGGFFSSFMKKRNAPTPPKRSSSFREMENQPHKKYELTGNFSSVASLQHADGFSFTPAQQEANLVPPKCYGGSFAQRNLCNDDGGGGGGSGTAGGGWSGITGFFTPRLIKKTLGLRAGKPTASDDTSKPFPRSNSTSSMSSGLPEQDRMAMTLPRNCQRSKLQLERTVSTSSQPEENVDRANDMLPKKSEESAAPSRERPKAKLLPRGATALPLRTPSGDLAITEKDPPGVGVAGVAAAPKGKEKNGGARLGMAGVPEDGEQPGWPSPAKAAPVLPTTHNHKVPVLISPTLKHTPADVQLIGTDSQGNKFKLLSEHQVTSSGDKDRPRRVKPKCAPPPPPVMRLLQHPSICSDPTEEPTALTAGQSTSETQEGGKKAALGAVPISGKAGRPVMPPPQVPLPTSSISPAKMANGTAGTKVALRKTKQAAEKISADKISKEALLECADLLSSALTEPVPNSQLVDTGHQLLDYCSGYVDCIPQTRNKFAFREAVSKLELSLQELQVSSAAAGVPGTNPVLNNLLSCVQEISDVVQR
Chain of CDK5/p25(h) (Q00535 whole entry): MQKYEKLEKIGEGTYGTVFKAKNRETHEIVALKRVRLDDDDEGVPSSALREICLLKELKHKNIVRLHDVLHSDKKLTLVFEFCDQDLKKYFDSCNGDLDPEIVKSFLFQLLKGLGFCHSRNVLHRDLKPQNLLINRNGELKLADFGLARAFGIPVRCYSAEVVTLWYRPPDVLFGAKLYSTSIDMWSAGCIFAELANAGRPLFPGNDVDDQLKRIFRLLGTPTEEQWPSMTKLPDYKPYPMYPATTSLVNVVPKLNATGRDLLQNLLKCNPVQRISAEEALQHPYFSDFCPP
Chain of CDK5/p25(h) (Q15078 99-307 partner limits assumed): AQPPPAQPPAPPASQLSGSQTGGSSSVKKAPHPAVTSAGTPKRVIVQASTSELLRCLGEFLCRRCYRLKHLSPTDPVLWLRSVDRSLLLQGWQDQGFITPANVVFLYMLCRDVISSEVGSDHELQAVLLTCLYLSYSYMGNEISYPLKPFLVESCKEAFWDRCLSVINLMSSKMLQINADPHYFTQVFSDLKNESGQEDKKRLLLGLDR
Chain of DAPK1(h) (P53355 whole entry): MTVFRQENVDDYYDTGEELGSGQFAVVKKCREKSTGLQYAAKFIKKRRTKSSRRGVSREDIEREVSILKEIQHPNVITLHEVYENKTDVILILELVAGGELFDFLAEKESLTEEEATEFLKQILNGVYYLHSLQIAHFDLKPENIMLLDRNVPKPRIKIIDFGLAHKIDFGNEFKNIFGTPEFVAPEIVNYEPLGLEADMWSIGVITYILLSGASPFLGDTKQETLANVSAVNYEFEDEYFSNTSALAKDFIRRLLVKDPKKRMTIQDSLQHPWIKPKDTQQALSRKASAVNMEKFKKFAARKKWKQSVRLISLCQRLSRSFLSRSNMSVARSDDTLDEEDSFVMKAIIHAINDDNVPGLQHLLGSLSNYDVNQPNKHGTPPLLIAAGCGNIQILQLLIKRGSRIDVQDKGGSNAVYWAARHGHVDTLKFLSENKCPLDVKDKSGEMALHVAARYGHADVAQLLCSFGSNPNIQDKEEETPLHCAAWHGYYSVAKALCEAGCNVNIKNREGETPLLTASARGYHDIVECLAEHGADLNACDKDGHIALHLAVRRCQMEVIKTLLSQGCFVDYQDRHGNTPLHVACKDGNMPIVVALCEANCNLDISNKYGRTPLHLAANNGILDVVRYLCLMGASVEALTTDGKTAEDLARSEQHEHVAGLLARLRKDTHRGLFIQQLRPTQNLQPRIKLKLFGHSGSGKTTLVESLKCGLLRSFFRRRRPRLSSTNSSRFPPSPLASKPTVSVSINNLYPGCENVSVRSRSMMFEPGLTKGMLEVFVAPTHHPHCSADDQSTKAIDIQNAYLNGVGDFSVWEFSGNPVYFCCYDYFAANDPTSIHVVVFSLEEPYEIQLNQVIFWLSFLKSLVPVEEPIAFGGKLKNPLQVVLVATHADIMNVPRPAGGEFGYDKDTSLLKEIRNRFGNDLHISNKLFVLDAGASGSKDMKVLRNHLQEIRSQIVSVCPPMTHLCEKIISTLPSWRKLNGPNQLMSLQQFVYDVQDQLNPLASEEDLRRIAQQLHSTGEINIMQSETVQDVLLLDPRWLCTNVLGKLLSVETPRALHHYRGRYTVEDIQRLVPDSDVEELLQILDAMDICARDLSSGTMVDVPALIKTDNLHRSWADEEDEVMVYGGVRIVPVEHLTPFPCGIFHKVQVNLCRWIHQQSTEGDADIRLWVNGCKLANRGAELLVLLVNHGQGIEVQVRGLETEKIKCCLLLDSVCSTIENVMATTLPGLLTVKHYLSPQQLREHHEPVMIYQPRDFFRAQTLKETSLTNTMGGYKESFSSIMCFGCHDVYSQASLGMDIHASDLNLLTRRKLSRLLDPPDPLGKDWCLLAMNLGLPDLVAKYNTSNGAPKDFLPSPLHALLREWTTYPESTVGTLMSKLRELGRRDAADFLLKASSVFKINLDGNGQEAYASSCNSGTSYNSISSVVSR
Chain of FAK(h) (Q05397 whole entry): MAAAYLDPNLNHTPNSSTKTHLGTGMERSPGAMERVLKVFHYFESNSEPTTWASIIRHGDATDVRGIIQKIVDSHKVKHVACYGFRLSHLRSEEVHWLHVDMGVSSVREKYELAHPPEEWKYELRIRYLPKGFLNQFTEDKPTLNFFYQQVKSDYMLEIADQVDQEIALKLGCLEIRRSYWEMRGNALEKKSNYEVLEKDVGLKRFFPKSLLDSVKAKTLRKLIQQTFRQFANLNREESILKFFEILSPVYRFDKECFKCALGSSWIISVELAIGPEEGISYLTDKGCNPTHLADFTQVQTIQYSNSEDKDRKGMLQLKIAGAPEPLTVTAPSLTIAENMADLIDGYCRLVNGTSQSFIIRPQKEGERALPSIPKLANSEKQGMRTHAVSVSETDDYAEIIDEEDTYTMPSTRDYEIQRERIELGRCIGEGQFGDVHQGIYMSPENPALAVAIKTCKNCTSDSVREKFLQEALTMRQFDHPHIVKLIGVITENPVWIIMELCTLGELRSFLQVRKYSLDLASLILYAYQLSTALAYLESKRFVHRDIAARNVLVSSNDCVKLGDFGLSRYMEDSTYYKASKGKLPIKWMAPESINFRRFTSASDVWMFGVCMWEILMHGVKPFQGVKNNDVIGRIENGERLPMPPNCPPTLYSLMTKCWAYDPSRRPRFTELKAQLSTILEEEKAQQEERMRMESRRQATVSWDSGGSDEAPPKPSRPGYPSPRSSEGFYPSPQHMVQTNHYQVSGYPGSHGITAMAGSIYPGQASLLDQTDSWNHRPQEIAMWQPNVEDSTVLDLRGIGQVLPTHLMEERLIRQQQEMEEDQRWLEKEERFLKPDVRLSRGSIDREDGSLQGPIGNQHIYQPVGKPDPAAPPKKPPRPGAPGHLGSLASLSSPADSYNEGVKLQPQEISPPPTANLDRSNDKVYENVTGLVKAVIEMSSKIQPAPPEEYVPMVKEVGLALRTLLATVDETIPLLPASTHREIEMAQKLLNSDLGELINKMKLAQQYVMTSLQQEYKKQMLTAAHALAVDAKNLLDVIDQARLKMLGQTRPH
Chain of Lyn(h) (P07948 whole entry): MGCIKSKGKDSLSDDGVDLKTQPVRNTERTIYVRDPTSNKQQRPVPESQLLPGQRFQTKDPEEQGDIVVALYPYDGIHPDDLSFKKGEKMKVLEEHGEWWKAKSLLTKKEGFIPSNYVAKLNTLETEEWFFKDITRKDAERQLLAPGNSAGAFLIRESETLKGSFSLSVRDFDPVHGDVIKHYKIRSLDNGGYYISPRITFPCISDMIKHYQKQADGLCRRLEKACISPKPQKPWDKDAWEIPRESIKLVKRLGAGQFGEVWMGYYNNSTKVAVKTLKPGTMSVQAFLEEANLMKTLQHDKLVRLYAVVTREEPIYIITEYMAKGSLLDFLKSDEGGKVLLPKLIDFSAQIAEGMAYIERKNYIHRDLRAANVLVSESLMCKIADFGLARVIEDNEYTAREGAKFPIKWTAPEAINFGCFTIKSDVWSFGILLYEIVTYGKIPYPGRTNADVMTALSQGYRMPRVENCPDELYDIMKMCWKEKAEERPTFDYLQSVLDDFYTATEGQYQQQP
Chain of SAPK2a(h) (Q16539 whole entry): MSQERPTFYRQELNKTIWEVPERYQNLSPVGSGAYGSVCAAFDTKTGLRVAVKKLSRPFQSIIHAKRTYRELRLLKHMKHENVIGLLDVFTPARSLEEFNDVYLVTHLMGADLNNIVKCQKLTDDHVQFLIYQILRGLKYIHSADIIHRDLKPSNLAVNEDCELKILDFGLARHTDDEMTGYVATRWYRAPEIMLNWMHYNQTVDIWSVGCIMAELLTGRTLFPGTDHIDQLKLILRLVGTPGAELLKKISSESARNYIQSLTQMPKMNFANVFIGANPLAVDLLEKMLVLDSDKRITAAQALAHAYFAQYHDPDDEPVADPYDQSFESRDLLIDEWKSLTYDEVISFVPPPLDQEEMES

H-YARAAARQARAKALARQLGVAA-OH [MMI-0100]
activity at 100 µM (SGK(h)): 128%
activity at 100 µM (DAPK1(h)): 97%
activity at 100 µM (Ret(V804M)(h)): 92%
viability at 2 h, 500 µM [1]: 76%
activity at 100 µM (PRAK(h)): 159%

YARAAARQARAKALNRQLGVA (Mammalian) [MMI-0200]
% activity (FAK(h)): 110%
% activity (PKBβ(h)): 250%
% activity (Tie2(R849W)(h)): 89%
% activity (CK1γ3(h)): 96%
% activity (Ros(h)): 86%
% activity (Arg(h)): 82%
% activity (EphA2(h)): 95%
% activity (Hck(h) activated): 100%
% activity (CDK5/p25(h)): 97%
% activity (PKCβI(h)): 98%
% activity (Syk(h)): 36%
% activity (EGFR(T790M,L858R)(h)): 108%
% activity (Lyn(h)): 98%

HRRIKAWLKKIKALARQLGVAA (Mammalian) [MMI-0500]
% activity (Rsk3(h)): 23%
% activity (FAK(h)): 94%
% activity (PKBβ(h)): 21%
% activity (SGK(h); 100 μM): 2%
% activity (DAPK1(h); 100 μM): 0%
% activity (Ret(V804M)(h); 100 μM): 36%
% activity (Ros(h)): 150%
% activity (Aurora-A(h)): 110%
% activity (Arg(h)): 22%
% activity (Hck(h) activated): 67%
% activity (Ab1(h)): 16%
% activity (SAPK2a(h)): 52%
% activity (Lck(h)): 359%
% activity (CDK5/p25(h)): 66%
% activity (PKCβI(h)): 1%
% activity (Syk(h)): 5%
% activity (Ab1(Q252H)(h)): 40%
% activity (EGFR(T790M,L858R)(h)): 53%
% activity (LIMK1(h)): 87%
% activity (PRAK(h); 100 μM): 95%
% activity (Lyn(h)): 31%
